# Reference: US20220056517A1 (OXFORD NANOPORE TECHNOLOGIES, published 2022)
# Changes are numbered by the printed parent chain. Names and notes keep the numbering of the source. No end group written: not given here. *: point of attachment. NH(CH2)5NH2 = NCCCCCN*
# T1: CsgG Y51A/N55V/F56Q/N91R/K94Q/R97W-del(V105-I107) pore containing the C terminal strep tag (E. coli, UniProt P0AEA2 16-277)
# T1 construct: Oligomeric CsgG pore; also called Y51A/F56Q/N55V/N91R/K94Q/R97W-del(V105-I107); not shown: C-terminal Strep tag
# T1 chain: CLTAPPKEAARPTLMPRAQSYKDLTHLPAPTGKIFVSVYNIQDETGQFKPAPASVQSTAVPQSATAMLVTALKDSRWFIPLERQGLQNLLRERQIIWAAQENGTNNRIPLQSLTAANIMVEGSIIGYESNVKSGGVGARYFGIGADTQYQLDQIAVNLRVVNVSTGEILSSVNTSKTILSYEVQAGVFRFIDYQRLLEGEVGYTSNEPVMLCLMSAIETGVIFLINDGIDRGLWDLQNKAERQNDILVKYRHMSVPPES
# T2: CsgG Y51T/N55V/F56Q/N91R/K94Q/R97W-del(V105-I107) pore containing the C terminal strep tag (E. coli, UniProt P0AEA2 16-277)
# T2 construct: not shown: C-terminal Strep tag
# T2 chain: T1 chain with A51T
# T3: CsgG Y51A/F56A/N91R/K94Q/R97W-del(V105-I107) pore containing the C terminal strep tag (E. coli, UniProt P0AEA2 16-277)
# T3 construct: not shown: C-terminal Strep tag
# T3 chain: T1 chain with V55N, Q56A
# T4: CsgG Y51A/N55I/F56Q/N91R/K94Q/R97W-del(V105-I107) pore containing the C terminal strep tag (E. coli, UniProt P0AEA2 16-277)
# T4 construct: also called Y51A/N551/F56Q/N91R/K94Q/R97W-del(V105-I107) (sic); not shown: C-terminal Strep tag
# T4 chain: T1 chain with V55I
# T5: CsgG Y51S/N55V/F56Q/N91R/K94Q/R97W-del(V105-I107) pore containing the C terminal strep tag (E. coli, UniProt P0AEA2 16-277)
# T5 construct: also called Y515/N55V/F56Q/N91R/K94Q/R97W-del(V105-I107) (sic); not shown: C-terminal Strep tag
# T5 chain: T1 chain with A51S
# T6: CsgG Y51A/F56Q/K94Q/R97W/R192D-del(V105-I107), Strep-tagged (E. coli, UniProt P0AEA2 16-277)
# T6 construct: Oligomeric CsgG pore; also called CsgG mutant with altered constriction; not shown: Strep tag
# T6 chain: T1 chain with V55N, R91N, R189D
# T7: CsgG Y51A/F56Q/N91R/K94Q/R97W-del(V105-I107) pore containing the C terminal strep tag (E. coli, UniProt P0AEA2 16-277)
# T7 construct: Oligomeric CsgG pore; not shown: C-terminal Strep tag
# T7 chain: T1 chain with V55N
# B1: E. coli CsgF (mature) with C-terminal 6x histidine tag (other)
# chain: GTMTFQFRNPNFGGNPNNGAFLLNSAQAQNSYKDPSYNDDFGIETPSALDNFTQAIQSQILGGLLSNINTGKPGRMVTNDYIVDIANRDGQLQLNVTDRKTGQTSTIQVSGLQNNSTDFHHHHHH
# notes: also called CsgF-His; CsgF-his
# B2: CsgF-(1-30) synthetic peptide (peptide)
# peptide: GTMTFQFRNPNFGGNPNNGAFLLNSAQAQN
# notes: Range counted on mature CsgF; also called mature peptide of CsgF 1:30
# B3: CsgF 20:64 peptide with C-terminal 6xHis (from pNA100) (peptide)
# peptide: GTMTFQFRNPNFGGNPNNGAFLLNSAQAQNSYKDPSYNDDFGIETHHHHHH
# notes: first 45 residues of mature CsgF; also called CsgF fragment 1-64; CsgF 1-64
# B4: E. coli CsgG (wild-type) fused C-terminally to a Strep-II tag, outer membrane pore (other)
# chain: CLTAPPKEAARPTLMPRAQSYKDLTHLPAPTGKIFVSVYNIQDETGQFKPYPASNFSTAVPQSATAMLVTALKDSRWFIPLERQGLQNLLNERKIIRAAQENGTVAINNRIPLQSLTAANIMVEGSIIGYESNVKSGGVGARYFGIGADTQYQLDQIAVNLRVVNVSTGEILSSVNTSKTILSYEVQAGVFRFIDYQRLLEGEVGYTSNEPVMLCLMSAIETGVIFLINDGIDRGLWDLQNKAERQNDILVKYRHMSVPPES
# modifications: N-terminal lipidation of mature CsgG (Cys at the N-terminal position)
# notes: Nonameric pore; dimers of nonamers also seen; also called CsgG-Strep; CsgG-strep; not shown: C-terminal Strep-II tag
# B5: Alexa 594-labelled synthetic CsgF peptide corresponding to the first 34 residues of mature CsgF (peptide)
# peptide: GTMTFQFRNPNFGGNPNNGAFLLNSAQAQNSYKD-{NH(CH2)5NH2-Alexa594}
# notes: also called CsgF N-terminal peptide; FCP
# B6: CsgF truncated at position 35 by TEV protease cleavage, with ENLYFQ left at the cleavage site (peptide)
# peptide: GTMTFQFRNPNFGGNPNNGAFLLNSAQAQNSYKDPENLYFQ
# notes: also called CsgF truncated protein; No mutations at 17 position of CsgF
# B7: CsgF N17S truncated at position 35 by TEV protease cleavage, with ENLYFQ left at the cleavage site (peptide)
# peptide: B6 peptide with N17S
# notes: also called N175 mutation in CsgF (sic, N17S)
# B8: Pro-CP1-Eco-(WT-Y51A/F56Q/D149N/E185N/E201N/E203N-StrepII(C)) CsgG pore (other)
# chain: CLTAPPKEAARPTLMPRAQSYKDLTHLPAPTGKIFVSVYNIQDETGQFKPAPASNQSTAVPQSATAMLVTALKDSRWFIPLERQGLQNLLNERKIIRAAQENGTVAINNRIPLQSLTAANIMVEGSIIGYESNVKSGGVGARYFGIGANTQYQLDQIAVNLRVVNVSTGEILSSVNTSKTILSYNVQAGVFRFIDYQRLLNGNVGYTSNEPVMLCLMSAIETGVIFLINDGIDRGLWDLQNKAERQNDILVKYRHMSVPPESSAWSHPQFEK
# notes: The entry already holds the mutations and the StrepII tag; also called Pro-CP1-Eco-(Mutant-StrepII(C)); monomeric pore
# Tests used:
# [1] = target: B4; experiment: cryo-EM of co-purified or in vitro reconstituted CsgG:CsgF particles
# [2] = target: T1, CsgG …; experiment: reconstitution with synthetic peptide, electrophysiology
# [3] = target: T2, CsgG …; experiment: panel B; in vitro reconstitution; DNA translocation current recording
# [4] = target: T3, CsgG …; experiment: panel D; in vitro reconstitution; DNA translocation current recording
# [5] = target: T1, CsgG …; experiment: in vitro reconstitution; DNA translocation current recording
# [6] = target: T4, CsgG …; experiment: panel C; in vitro reconstitution; DNA translocation current recording
# [7] = target: T5, CsgG …; experiment: panel F; in vitro reconstitution; DNA translocation current recording
# [8] = target: B4; experiment: co-expression, Strep affinity purification, anti-His dot blot
# [9] = target: the molecule itself; experiment: size exclusion chromatography (Superose 6); pore-pore dimer
# [10] = target: T6, CsgG …; experiment: in vitro reconstitution (2:1 molar ratio), StrepTactin pull down, native PAGE with fluorescence
# [11] = target: B4; experiment: as above
# [12] = target: T7, CsgG …; experiment: co-expression, purification, TEV cleavage; DNA translocation current recording
# [13] = target: the molecule itself; experiment: size exclusion chromatography (S200 increase) of Strep- and ion-exchange-purified CsgG pore; pore-pore dimer
binder,measurement,setting,value
B1,binding result,[1],binds
B2,binding result,[2],binds
GTMTFQFRNPNFGGNPSNGAFLLNSAQAQNSYKDP (also called CsgF-N175-(1-35) (sic)) [CsgF-N17S-(1-35) peptide],binding result,[3],binds
same,binding result,[4],binds
same,binding result,[5],binds
same,binding result,[6],binds
same,binding result,[7],binds
GTMTFQFRNPNFGGNPVNGAFLLNSAQAQNSYKDP [CsgF-N17V-(1-35) peptide],binding result,[5],binds
GTMTFQFRNPNFGGNPNNGAFLLNSAQAQ [CsgF-(1-29) synthetic peptide],binding result,[2],binds
B3,binding result,[8],binds
B4,binding result,[9],binds
B5,binding result,[10],binds
same,binding result,[11],binds
B6,binding result,[12],binds
B7,binding result,[12],binds
B8,binding result,[13],binds
